The nanobody polyreactivity screen of Harvey et al. (2022)

Assay: yeast display, Sf9 membrane polyspecificity reagent, FACS + sequencing; frameworks hold sequencing errors
Summary of the method: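 Synthetic nanobody libraries on Saccharomyces cerevisiae BJ5465 were galactose-induced for 36–48 hours, stained 1 hour at 4 °C with 10% biotinylated, detergent-solubilized Sf9 membrane reagent and enriched on streptavidin microbeads. FACS then separated cells into low and high (top ~1%) gates by anti-HA (expression) and streptavidin (reagent binding) fluorescence. Genes were colony-PCR amplified, MiSeq 2 × 250 sequenced and CDR-length filtered. A clone's polyreactivity label is that of its gate of origin.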

Sequence | polyreactivity (PSR sort gate)
QVQLVESGGGLVQAGGSLRLSCAASGIIFYHNTMGWYRQAPGKERELVAAISGSGGSTYYADSVKGRFTISRDNEKNTVYLQMKSLKPEDTAVYYCAAYRRRYPGFDYWGQGTQVTVSS | high polyreactivity
QVQLVESGGGLVQAGGSLRLSCAASGRTFYVYTMGWYIQAPGKEREMVAGIAYSGGSTYYADSVKGRFTISRDNAKNTVYLQMNSLKPEDTAVYYCNADLYFPYFDGKTRHGGYWGQGTQVTVSS | low polyreactivity
QVQLVESGGGLVQAGGSLRLSCAASGFIFAEYAMGWYRQAPGKERELVAAITWSGVTTYYADSVKGRFTISRDNAKNTVYLLMNSLKPEDTAVYYCAAGRTRRKFDYWGQGTQVTVSS | low polyreactivity
QVQLVETGGGLFHAGGSLRLSCAASGRIFVGYAMGWYIQAPGKERELVAAINSGGRTNYADSVKGRFTISRYNAKNNVYLQMNSLKPEDTAVYYCAATLRPYSSFPNRYGYWGQGTQVTVSS | low polyreactivity
QVHLVESGGGLVLAPASLRLSSPASGHNQGIYAMGWYRQAPGKEREFVAAISRGGGSTYYADSVKGRFTISRDNAKNTVYLQMNSLNPEDTAVYYCNAVRDRYGVFPYYYWGQGTQVTVSS | high polyreactivity
QVQLVESCGGLVQAGGSLRLSCAASGFTFLGYAMGWYRQAPGKERELVAAITSGDSTDYADSVKGRFTISRDNAKNTVYLQMNSLKPEDTAVYYCNAELGSAYEYWGQGTQVTVSS | low polyreactivity
QVQLVESGGGLLHAGGSLRLSCAASGRTFYSNAMGWYRQAPGKERELVASISSRGSTNYADSVKGRFTISRDNAKNTVYLEMNSLKPEDTAVYYCAKRTHQFGVSRSYNTYYYWGHGTQVTVSS | low polyreactivity
QVQLQESGGGLVQAGGSLCLSCAASGTIFFDRDMGWYRQAPGKEREFVAAINPGGSAYYADSVKGRLPLAAITHTVYLQRNSLKPEVTAVYYCAAKLFDVYGYYYWGQGTDVTVSS | low polyreactivity
QVQLVESGGGLVQAGGSLRLSCAASGRTFSNYAMGWYRQAPGKERELVAAISQRGGSTYYADSVKGRFTISRDNAKITVYLQMNSLKPEDTAVYYCNALFRLRAYADMDYWGQGTQVTVSS | high polyreactivity
QVQLVESGGGLVQAGGSLRLTCAASGLTFGLYAMGWYRQAPGKERELVAAITRGDSTNYADSVKGRFTISRDNAKNTVYLQMNSLKPEDTAVYYFNAVRTYWWGYNQQYNYWGQGTQVTVSS | high polyreactivity
QVQLVESGGGLVQAGGSLRLSSAASGSTSFQNAMGWYRQATGKEREFVAAISGSGDRTNYADSVKGRFTISRDNAMYTVYVQMNSLKPEDTAVYYCAAVRGYPPSNYYYWGQGTQVTVSS | high polyreactivity
QVQLVESGGGLFQAGGSLRLSCAASGISFWSYDMGWYRQAPGKERELVAAISRGGESTYYADSVKGRFTISRDLAKNTVYVQMNSLKPEDTAVYYCPALRPREEYYWGQGTQVTVSS | high polyreactivity
QVQIVESGGGLVQAGGSLRISCAASGIIFYAYAMGWSRQAPGKEREFVAAINNSGGRTYYADSVKGRFTISRDNAKNTVYLQMNSLKPEDTAVYYCAVYSYYRRTYRREMDYWGQGTQVTVSS | high polyreactivity
QVQVVESGGGLVQAGGSLRLTCAASGRTFYKNAMGWYRQAAGKERELFAAITTRGGTTFYADSVKGRFTISRDNAKNTDYLQLNSMIPEDTAVDYCAKDSYTRPRGYDFWGQGTHVTVSS | high polyreactivity
QVQLVESGGGLVQAGGSLRLSCAASGRTFYGYVMGWYRQAPGKERELVAAISRSVGSTYYADSVKGRFTISRDNAKNTVYLQMNSLKPEDTAVYYCATSVYGGVDYWGQGTQVTVSS | high polyreactivity
QVQLVESGGGLVQAGGSLRLSCAASGITLFHYVKGWYRQAPGKERELVADITWRGGNTFYADSVKGRFTISRDNAKNTVYLQMNSLKPEDTAVYYCAVRQAYRTRDYDYWGQGTQVTVSS | high polyreactivity
QVQHVDSRGGLVQAGGSLRLSCAASGSIVPWNDMGWYRQAPGKERQLVAAITYRGGRTYYADSVKGRFTISRDNAKNTVYLQMNSLKPEDTAVYYCATKSRRNSPRMDYWGQGTQVTVSS | high polyreactivity
QVQLVESGGGLVQAGGSLSLSCAASGSTFYPYAMGWYRQAPGTERELVAAISSGGSTSYADSVKGRFTISRDNAKNTVYLQMNSLKPEDTAVYYCAAEGPEIKYYYWGQGTQVTVSL | low polyreactivity
QVQLQESGGGLVQEGGSLRLSCAASGSIFKVVHMGLYRQAPAKEREFVATIGEGGNTYYADSVKGRFTISRDNAKNTVYLQMNSLKPVDTAVYFYAVVLGTSYRYTYWGQGTQVTVSS | low polyreactivity
QVQLVESGGGLVQAGGSLRLSSAASGSTYDFKAMGWNRQAHGKERELFAAITGSGGSTDNADSVKGRFTISRDNAKNSVYLQMNSLKPEDTAVYYCNAGKTFDYRDGVGYDHWGQGTQVTVSS | low polyreactivity
QVQLVESGGGLVQAGGSLRLSCAASGRIFRPNAMGWYRQAPGKERELVAAMTSGGSTNYADSVKGRFTISRDNAKNTVYLQMNSLKPEDTAVYYCAKGYKYGKNIYYYWGQGTQVTVSS | high polyreactivity
QVQIVESGGGLVQAGGSLPLSCAASGSIFDYYVMGWYRQAPGKERELVAAINWSGDGTNYADSVKGRFTISRDNAKNTVYLQMNSLKPEDTAVYYCNADWTSDGFGTRLDYWGQGTQVTVSS | low polyreactivity

Sequence | polyreactivity (PSR sort gate)
QVQLVESGGGLVQAGGSLRLSCAASGSTFTYYAMGWYRQAPGKERELVAAISRRGGSTYYADSVKGRFTISRDNAKNTVYLQMNSLKPEDTAVYYCNVVIYSYGINGRYDYWGQGTQVTVSS | high polyreactivity
QVQLVESGGGLVQAGGRLRLSCAASGRIFDLNAMGWYRQAPGKERELVADINSGGSTYYADSVKGRFTISRDNAKNTVYLQMNSLKPEDTAVYYCDVRRNQHVVQMYYWGQGTQVTVSS | low polyreactivity
QVQLEESGGGLVQAGGSLRLSCAASGRIFVSNAMGWYRQAPGKERELVAAITDSGGSTYYADSVKGRFTISRDNAKNTVYLQMNSLKPEDTAVYYCATRTLFRYPNYGNNLWGYDYWGLGTQVTVSS | low polyreactivity
QVQLVESGGGLVQAGGSLRLSCAASGFTFRLYTMGWYRQAPGKERELVAAITYSGDSTYYADSVKGRFTISRDNAKNTVYLQMNSLKPEDTAVYYCAARKYYARYYWGQGTQVTVSS | high polyreactivity
QVQLVESGGGLVQAGGSLRLSCAASGSTFEYNAMGWYRQAPGKERELVAAISRTANANYADSVKGRFTISRDNAKNTFYLQMNSLKPEETAVYYCAADFLDSKVHVRFGYWGQGTQVTVSS | low polyreactivity
QVLLVESCGGLVQAGGSLRLSCAASGRIFPLYAMGWYRQAPGKERELVAAISSGGTTYYADSVKGRFTISRDNAKNTVYLQMNSLKPEDTAVYYCNVEYVISWWMYDYWGQGTQVTVSS | low polyreactivity
QVQLVESGGGLVQAGGSLRLSCAASGSILTINAMGWYRQAPGKERELVAAITGNGGSTDYADSVKGRFTISRDTAKNTVYLQMNSLKPVDTAVYYCAARLYYFGRSGVKYRDGYWGQGTQVTVSS | high polyreactivity
QVQLVESGGGLLQAGGSLRLSCAASGSIFRYYAMGWYRQAPGKERELVATISTGGRTYYADSVKGRFTISRDNAKNTVYLQMNSLKPEVTAVYYCAAVRLTWTAKYNYWGQGTQVTVSS | high polyreactivity
QVQIVESGGGLVQAGGSLRLSCAASGLTFEWYTMGWYRQAPGKERELVAVITVSGSSTYYADSVKGRFTISRDNAKNTVYLQMNSLKPEDTAVYYCNADWSFYSYTLYDYWGQGTQVTVSS | low polyreactivity
QDQLVESGGGLVQAGGSLRLSCAASGITFAYYAMGWYRQAPGQERDFVAAINGGGSTNYADSVKGRFTISRDNAKNTVYLQMKSLKAEDTAVYYCNARRAYRAWDYPYDYWGQGTQVTVSS | high polyreactivity
QVQLVESGGGLVQAGGSLRLSCAASGFIFHYNAMGWYRQAPGKERELVAAITSGDSTDYADSVKGRFTISRDNAKNTVYLQMNSLKPEDTAVYYCAAYHREGRRDDYWGQGTQVTVSS | low polyreactivity
QVQLVESGGGLVQAGGSLRLSCAASGFTFYFYAMGWYRQAPGKERDLVAAINSGDSTYYADSVKGRFTISSDNEKNTVYLQMNSLKPEDTAVYYCSAAQFIQLRDYWGQGTQVTVSS | high polyreactivity
QVQLVESGGGLVQAGGSLRLSCAASAYTFDGYAMGWYRQAPGKERELVAAINSGGGTYYADSVKGRFTISRDNAKNSVYLQMNSLKPEDTPVYYCNASVKPSNVWSRGYDYWGQGTQVTVSS | low polyreactivity
QVQLVESGGGLVQAGGSLRLSCAASGRIFASYAMGWYRQAPGKERELVAAINSNGGSKYYADSVKGRFTISRDNAKNTVYLQMNSLKPEDTAVYYCAAGARYKMGYWGQGTQVTVSS | high polyreactivity
QVQLVESGGGLVQAGGSLRLSCAASGSISLYAMGWYRQAPGKERELVAAITKSGGSTYYADSVKGRFTISRDNAKNTVYLQMNSLKPEDTAVYYCNRGGGERKYNYWGQGTQVTGSS | high polyreactivity
QVQLVESGGGLVQAGGSLRLSCAASGITFVYNAMGWYRQAPGKERELVAAIDFGAGSTYYADSVKGRFTISRDNAKNTVYLPMNSLKPEDTAVYYCAAGAARWYWPYDYWGQGTQVTVSS | low polyreactivity
QVQHVESGGGLVQAGGSLRLSCAASGSLFYGNTMGWARQAPGKERELVAAISNDDSRTYYADSVKGRFTISRDNAKNTVYLQMNSLKPEDTAVYYSATRGYPYRYRQTLNYWGQGTQVTVSS | high polyreactivity
QVQLVESGGGLVQAGRSLRLSCAASGYTFSPNDMGWYRQAPGKERELVATITYGGGTTYYADSVKGRFTISRDNAKNTVYLQMNSLKPEDTAVYYCAKDVPLYRAHDGYDYWGQGTQVTVSS | low polyreactivity
QVQLVESGGGLVQAGGSLRLSCAASGFTFYQYAMGWYRQAPGKERELVAAISSGGSTYYADSVKGRFTISRDNAKNTVYLQMNSLKPEDTAVYYCAARFYRPGVKQYGYWGQGTQVTVSS | high polyreactivity
QVQLVESGGGLVQAGGSLRLSCAASGRTFGSYAMGWYRQAPGKERELVAAITWSGTGTYYADSVKGRFTISRDNAKNTVYLQMNSLKPEDTAVYYCNTDRWYAYDWGQGTQVTVSS | high polyreactivity
QVQLVESGGGLVQAGGSLRLSCAASGFIFNRYAMGWYRQAPGKERELVADITGGSTYYADSVKGLFTISRDNAKNTVFLQMNSLKPEDTAVYYCAADVLRISTLLFRGPGFDSWGQGTQVTVSS | low polyreactivity
